The results in this text go back to patent publication US11892449B2, “Therapeutics and point of care lateral-flow test for virus and antibodies using tagged assembled proteins” (priority 2021, dated 2024).

One experiment has as its target p300. The experiment can be described thus: ELISA binding to p300, total binding kinetics. Particulars: for Kd: ELISA, average of three independent trials. From the text:
FIG. 21. H-MAP1 (H-MAP) and H-MAP2 ELISA fitted with total binding kinetics using Prism 7 (GraphPad) with calculated binding affinities as an average of three independent trials.
For orientation: In an ELISA, binding on a coated surface is turned into a signal by an enzyme label.

The next experiment deals with HIF1α. Briefly: Hypoxia-inducible luciferase reporter in MDA-MB-231 cells. It counts as cell-based. The note with it: MDA-MB-231-Luciferase cells, hypoxia induced with 100 μM CoCl2, increasing concentrations. From the text:
FIG. 22. […] Results are normalized to maximum luciferase intensity of two independent trials.
We will further characterize the HIF1α-MAP1 and iterative HIF1α-MAP designs as described in the following section. For example, to increase the likelihood of translocation to the nucleus, HIF1α-MAP-2 (H-MAP-2) was designed by addition of nuclear localization sequence, PKKKRKV (SEQ ID NO:7), at the N-terminus. […] To test the ability of HIF1α-MAPs to modulate hypoxia-inducible signaling, HIF1α-MAP-2 was incubated with triple negative breast cancer cell line, MDA-MB-231, stably transfected a construct to express firefly luciferase under normoxic and hypoxic (induced with final concentration 100 μM CoCl2) conditions.
For orientation: A reporter such as luciferase makes a cellular process visible.

native HIF1α [reference compound] had a Kd at p300 of 0.38 nM.

B1: H-MAP-2 (protein)
chain: MRGSPKKKRKVGGGGSHHHHHHHHGSACELAATATATATATATAACGDLAPQMLRELQETNAALQDVRELLRQQVKEITFLKNTLLEIWKAAKEAAKEAAAKIEEQAKTFLDKFNGEELLRALDQVN
With B1, binding on p300 was put at a Kd of 0.0382 nM. The figures for the “expression of luciferase (hypoxia-inducible gene expression)” value in the experiment with HIF1α and with HIF1α (listed as HIF1α-MAP-2) were “inhibitions of HIF1α” and “decreased expression of luciferase”, respectively.

B2: HIF1α-MAP-1 (protein)
chain: MRGSHHHHHHGSACELAATATATATATATAACGDLAPQMLRELQETNAALQDVRELLRQQVKEITFLKNTLLEIWKAAKEAAKEAAAKIEEQAKTFLDKFNGEELLRALDQVN
In the case of B2, binding on p300 was put at a Kd of 0.00808 nM. Besides, the “fold improvement in comparison to native HIF1α” value in the experiment with p300 (binding to p300) is reported as 47 fold.

Broadly, the Kd is the constant that tells how readily two partners part at equilibrium. High values mean a looser complex, low ones a tighter complex.
